Source: paper PMC2990340

Biological target: T1, CsdE-myc-His6 (E. coli K12 MG1655), P0AGF2
T1 chain: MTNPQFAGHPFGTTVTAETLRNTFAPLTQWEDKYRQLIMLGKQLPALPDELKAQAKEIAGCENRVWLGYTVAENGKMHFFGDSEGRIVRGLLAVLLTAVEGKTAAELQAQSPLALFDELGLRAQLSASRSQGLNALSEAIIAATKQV
Assay: affinity purification with mass spectrometry
Conditions: remark: other sources report otherwise

B1: CsdE-myc-His6, P0AGF2 1-147 (natural protein)
chain: MTNPQFAGHPFGTTVTAETLRNTFAPLTQWEDKYRQLIMLGKQLPALPDELKAQAKEIAGCENRVWLGYTVAENGKMHFFGDSEGRIVRGLLAVLLTAVEGKTAAELQAQSPLALFDELGLRAQLSASRSQGLNALSEAIIAATKQV
With B1 as the binder, how does the stoichiometry N read?
The stoichiometry N was 2.
